Tested on: MS2 coat protein
Experiment: apparent KD of MS2 coat protein; designed switch direction (-1 OFF switch, 1 ON switch): -1; higher = weaker reporter binding
Procedure, shortened: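 Designed RNA switches with common flanks were transcribed on Illumina chips by stalled E. coli RNA polymerase and titrated with SNAP-549-labelled MS2 coat protein, from 0.7 or 1.5 nM doubling to 3 µM, in Tris-HCl pH 7.5 buffer with KCl, MgCl2, BSA, DTT, tRNA and Tween-20. Steps lasted 0.8–1.5 h (lowest) to 10–20 min (highest). Titrations ran without input, with 200 uM small-molecule ligand, or with an oligonucleotide input. Normalised cluster fluorescence was curve-fitted, and apparent KD is the per-design median over clusters.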

[1] = input ligand: microRNA oligo, concentration not stated
[2] = Eterna round: R95, input ligand: FMN 200 uM
[3] = Eterna round: R95, input ligand: microRNA oligo, concentration not stated
[4] = Eterna round: R95, input ligand: none

Sequence | apparent KD of MS2 coat protein (input ligand: FMN 200 uM) [nM] | apparent KD of MS2 coat protein (input ligand: none) [nM] | apparent KD of MS2 coat protein [1] [nM] | apparent KD of MS2 coat protein [2] [nM] | apparent KD of MS2 coat protein [3] [nM] | apparent KD of MS2 coat protein [4] [nM]
GCGCCUUGAGUGAGGAUAUGUUCAUAGUCGCUUGGAUAGAAGGCACAUGAGGAUCACCCAUGUAUCGGAGUUAA [Eternabot (L2) Solution 39] (Eterna round: R97, puzzle: Brourd's mod of Exclusion 4) | 48.2 | 33.9 | – | – | – | –
ACAAGCAUUUAUCUUUUCAAAUAUUAUCGUCUUAUAAUUACAUGAGGAUCACCCAUGUAUAGAGGGUGAGAGAUACU [JR_Sensorv2_tov2_Sub552] (Eterna round: R96, puzzle: Sensor v2, turn-off variant 2) | 61.1 | 58.1 | 121 | – | – | –
CUGAAAUUCGUAAGGAUAUGUUCCAUCAAAUAGGAGCAGAAGGUACAUGAGGAUCACCCAUGUCAGUAGAUCCA [Eternabot (L1) Solution 47] (Eterna round: R97, puzzle: Brourd's mod of Exclusion 4) | 130 | 40.2 | – | – | – | –
GCGGACUUGAACGUGAGUUCAGAGACAUGAGGAUCACCCAUGUAGGAUAUCGAUUCGAAACGAAUCGAGAAGGGCAUAGUCCGC [JL denovo 13] (Eterna round: R96, puzzle: Exclusion NG 3) | 23.3 | 16.1 | 11.8 | – | – | –
UUUUUCGAACAAGCUUCGUACAUGAGGAUCACCCAUGUCGGUAGAUUUGAGUAGGUUUGGAUGGAAGUUCGUCUUAU [JR_SV3TOV1_Sub086] (puzzle: Sensor v3, turn-off variant 1) | – | – | – | 28.2 | 65.9 | 32.9
UGAACAUGUGUCAGGAUAUCUGAUGUAAGUUAAUCGGAGAAGGGACAUGAGGAUCACCCAUGUCGUCGAAAGAU [Eternabot (L2) Solution 40] (Eterna round: R97, puzzle: Brourd's mod of Exclusion 4) | 19.3 | 15.5 | – | – | – | –
AAUGUCUGAGGAUAUCGUUUUUUGUACAUGAGGAUCACCCAUGUUUUAUUUUGUAUAUUACGAGAAGGCAGUGGAA [JR_E5_Sub088] (puzzle: Exclusion 5) | – | – | – | – | 22.7 | –
CAAAACCUAGGAUAUACAUGAGGAUCACCCAUGUCGGGCCUACGCGAAACGCGCCUCAGUAGAAGGAGGGAAAC [Riri] (puzzle: Exclusion 3) | – | – | – | 180 | 46.8 | 70.5
CUGAGCAGACGGAGAUCCAACAUGAGGAUCACCCAUGUCUCAAAAGCUUUUUGCUCAUCUUAUUGUACCUUGGUGCU [JL ViennaUCT Edcesobi mod 2] (puzzle: Sensor v3, turn-off variant 1) | – | – | – | 391 | 17.6 | 342
GGUGCGUAUGUGAGGAUAUGCUGGUCCUUGGCUCAGCAGAAGGCACAUGAGGAUCACCCAUGUGGUGUCGUACC [salish99_Bmod_Ex4_027] (puzzle: Brourd's mod of Exclusion 4) | – | – | – | – | 229 | –
GCUAGGCAUGUCAGGAUAUGCUGUACCUUGGUACAGCAGAAGGGACAUGAGGAUCACCCAUGUGCCAACCUAGC [JL-BMX4-4.02] (Eterna round: R97, puzzle: Brourd's mod of Exclusion 4) | 736 | 55.9 | – | – | – | –
ACAAGCUUGUAAUGAUUGAACAUGAGGAUCACCCAUGUAAAUGGAAGAACCAAUUUGAUAAGAUAAACUCGUCUUAU [JR_STOV1_Sub005] (Eterna round: R97, puzzle: Sensor, turn-off variant 1) | 56.9 | 55.7 | – | – | – | –
UAUGAUUUAGGAUAUUGUACUGCUGACAUGAGGAUCACCCAUGUAUGCUAACUCGGCCGUCGAGAAGGAAAUUAUG [BotMod 28 - Jieux - Exclusion 5] (Eterna round: R97, puzzle: Exclusion 5) | 26.1 | 52.6 | – | – | – | –
UGUUGUCGCGUAGGAUAUGAGGAUCACCCAUAUAGAGGAUAUGAAAAGAAGGCUCUGAGGAUUACCCAGAAGGACGGGACAACU [pwkr exNG2 2xF5 2xFMN.22] (Eterna round: R96, puzzle: Exclusion NG 2) | 1180 | 155 | 132 | – | – | –
GGACGGAUAGGAUAUACAUGAGGAUCACCCAUGUGAACCCAGCAGAGGCUUCUUUGCAGUAGAAGGGUCCUUUA [Eternabot (Original) Solution 43] (Eterna round: R97, puzzle: Exclusion 3) | 53.5 | 47.5 | – | – | – | –
UAUAUAUAGUAAGGAUAUGUAAUUAUUUAAUAAACAGAAGGUACUGACAUGAGGAUCACCCAUGUUUUAGUGUGGGCAUGUAGA [JMF's solution 41] (Eterna round: R96, puzzle: Exclusion NG 1) | – | – | 69.4 | – | – | –
AAGACACAUGAGGAUCACCCAUGUGAGGAUAUUCGAUGCUGAGCGUAAGCUUAGUAUCGGAGAAGGCACAAAGG [Salishxclusion 7 - Jieux - Exclusion 1] (Eterna round: R97, puzzle: Exclusion 1) | 119 | 39.8 | – | – | – | –
UGCCAGCGAGGAUAUGCUAGAGGUGUUCCGUGCUCUAAGGGACAUGAGGAUCACCCAUGUAGAAGGCGCACGUC [Eternabot (L1) Solution 20] (Eterna round: R97, puzzle: Exclusion 2) | 187 | 194 | – | – | – | –
AUUGUGUGAGGAUAUUAAUAGUAAAUGAAUAGAAUUAUGAUUGAGAAGGCACAUGAGGAUCACCCAUGUUCCUU [JR_Ex4_Sub081] (Eterna round: R97, puzzle: Exclusion 4) | 17.8 | 19.6 | – | – | – | –
GCAGGAUAAGUCAGGAUAUACCUAUGGAUACAUAGGUAGAAGGGACAUGAGGAUCACCCAUGUUACUCGCCUGC [Fiskers BMX 4 - 74] (puzzle: Brourd's mod of Exclusion 4) | – | – | – | – | 13.6 | –
UUGAUAUGAGGAUAUUGCUAAGUCGACAUGAGGAUCACCCAUGUGAAGGAAUGUUUAUUGCAAGAAGGCGUCGCGG [Eternabot (L1) Solution 10] (Eterna round: R97, puzzle: Exclusion 5) | 49.5 | 60.5 | – | – | – | –
GCCUUAUCCGUCAGGAUAUACAUUUUUUUUUUUUUGUAGAAGGGACAUGAGGAUCACCCAUGUACAUUACAUUG [alecazam17] (Eterna round: R97, puzzle: Brourd's mod of Exclusion 4) | 41 | 22.9 | – | – | – | –
CCGAGGUAGCGGUCCUAUGACAUGAGGAUCACCCAUGUACCUCGCUACGAGCUUUUUGCUCAUCUUAUAAUUCUCGG [Atriat] (puzzle: Sensor v3, turn-off variant 1) | – | – | – | 20.9 | 26.1 | 19.2
AGUACUAACACGAUAGUGUUAGUACAAUAAGCUUGUGUUACAUGAGGAUCACCCAUGUCCUCAUAAGCUCGUCUUAA [Mat - Sensor v3 - Turn-off var 2 - D59] (puzzle: Sensor v3, turn-off variant 2) | – | – | – | 44.3 | 594 | 35.3
AGCUGUGGCCGAGGAUAUCACGAACCAUGGAAAACCAUGGAAACUCUACAUGAGGAUCACCCAUGUGAGAAGGCGGUCUCAGCA [Eli eng2 - 022] (Eterna round: R96, puzzle: Exclusion NG 2) | 87.7 | 35.2 | 21.6 | – | – | –
GCAUCCAAUGUGAGGAUAUACCUCUGGAUACAGAGGUAGAAGGCACAUGAGGAUCACCCAUGUUACUAGGAUGC [Fiskers BMX 4 - 36] (puzzle: Brourd's mod of Exclusion 4) | – | – | – | – | 19.3 | –
GCCGUUAAGGUAGGAUAUGCUCGGUCUGUGCGUGCAGAAGGGCUGGUCGGCGACUUGAGGAUCACCCAAGUGGUCUUAUAGAAA [Mutated MS2 EX1.21] (Eterna round: R96, puzzle: Exclusion NG 1) | 121 | 64.8 | 142 | – | – | –
UAAGAGUAUGUUAGGAUAUGCUGGUCCUUGGAUCAGCAGAAGGAACAUGAGGAUCACCCAUGUAGAAUCUUUUA [Mod of JL 17 - Jieux - Brourd's mod of Exclusion 4] (Eterna round: R97, puzzle: Brourd's mod of Exclusion 4) | 74.8 | 21.3 | – | – | – | –
AAUUAGUAUGUGAGGAUAUUGACGUAAUGACUGGUUAAGAAGGCACAUGAGGAUCACCCAUGUGGGAAGUCACG [JR_BMEx4_Sub011] (Eterna round: R97, puzzle: Brourd's mod of Exclusion 4) | 56.8 | 15.2 | – | – | – | –
CUGAGCAGACGGAGAUCCAACAUGAGGAUCACCCAUGUCUCAAAAGCUUUUUGCUCAUCUUAUCGUACCUUGGUGCU [JL ViennaUCT Edcesobi mod 1] (puzzle: Sensor v3, turn-off variant 1) | – | – | – | 406 | 20.2 | 445
